Source: the RNAGym collection of RNA variant scans (doi:10.1101/gr.219683.116)

B1: mRNA-splicing (parent)
chain: AGUUGCUGCUGGGAGCUCCAGCACAGUGAAAUGGACAGAAGGGCAGAGCAA

Variants of: B1
Test: exon inclusion enrichment index; higher = more inclusion; WT1 exon 5 minigene, HEK293

Variant	exon inclusion enrichment index
G5A C6G U7G C9A U27G G28A	0.00077
G5A C6G U7G C9A U27G G28U	0.0007
G5A C6G U7G C9A U27G G28C	0.00084
G5A C6U U7A	0.0138
G5A C6U U7A G8U C9A A20C	0.047
G5A C6U U7A G8U C9A A20U	0.0779
G5A C6U U7A G8U C9A A20G	0.102
G5A C6U G8A C9A	0.0634
G5A C6G U7G C9G	0.00209
G5A C6G U7G C9U	0.00241
G5A C6G U7G C9A G46A A47U	0.00359
G5A C6G U7G C9A G46A A47C	0.00647
G5A C6G U7G C9A G46A A47G	0.00174
G5A C6G U7G C9A G46U A47U	0.00177
G5A C6G U7G C9A G46U A47C	0.0165
G5A C6G U7G C9A G46U A47G	0.00156
G5A C6G U7G C9A G41U G42A	0.000614
G5A C6G U7G C9A G41U G42C	0.00698
G5A C6G U7G C9A G41U G42U	0.00223
G5A C6G U7G C9A U27C	0.00674
G5A C6G U7G C9A U27G	0.000925
G5A C6G U7G C9A U27A	0.00261
G5A C6G U7G G8C C9A	0.0086
G5A C6G U7G G8C C9U	0.00108

Variant	exon inclusion enrichment index
G5A C6G U7G G8C C9G	0.0513
G5A C6G U7G G8A C9A	0.00786
G5A C6G U7G G8A C9U	0.0075
G5A C6G U7G G8A C9G	0.0105
G5A C6G U7G C9A G42A G43U	0.0457
G5A C6G U7G C9A G42A G43A	0.0419
G5A C6G U7G C9A G42A G43C	0.0943
G5A C6G U7G C9A G41C G42U	0.0271
G5A C6G U7G C9A G41C G42C	0.0196
G5A C6G U7G C9A U27A G28C	0.0045
G5A C6G U7G C9A U27A G28U	0.00161
G5A C6G U7G C9A U27A G28A	0.00156
G5A C6G U7G C9A G42C G43A	0.0348
G5A C6G U7G C9A G42C G43C	0.0141
G5A C6G U7G C9A G42C G43U	0.00749
G5A C6G U7G C9A U27C G28A	0.00952
G5A C6G U7G C9A U27C G28C	0.0122
G5A C6G U7G C9A U27C G28U	0.00816
G5A C6G U7G C9A G43C C44G	0.0277
G5A C6G U7G C9A G43C C44U	0.000823
G5A C6G U7G C9A G43C C44A	0.0166
G5A C6U U7A G8U C9A A20U G21C	0.0614
G5A C6U U7A G8U C9A A20U G21A	0.0106
G5A C6U U7A G8U C9A A20U G21U	0.0251

Variant	exon inclusion enrichment index
G5A C6U U7A G8C C9A	0.286
G5A C6U U7A G8C C9U	0.218
G5A C6U U7A G8C C9G	0.736
G5A C6U U7A G8U C9A A20C G21C	0.0139
G5A C6U U7A G8U C9A A20C G21U	0.0238
G5A C6U U7A G8U C9A A20C G21A	0.0479
G5A C6U U7A G8U C9A A14C	0.0601
G5A C6U U7A G8U C9A A14U	0.00769
G5A C6U U7A G8U C9A A14G	0.0395
G5A C6U G8U C9A	0.038
G5A C6U G8U C9U	0.0357
G5A C6G U7G C9A U32G	0.00176
G5A C6G U7G C9A U32A	0.000886
G5A C6G U7G C9A U32C	0.00508
G5A C6G U7G C9A U17A C18A	0.00127
G5A C6G U7G C9A U17A C18G	0.00136
G5A C6G U7G C9A U17A C18U	0.00863
G5A C6U G8C C9U U10C	0.807
G5A C6G U7G C9G U10A	0.00648
G5A C6G U7G C9G U10G	0.0568
G5A C6G U7G C9G U10C	0.00245
G5A C6G U7G C9A U17C C18A	0.00107
G5A C6G U7G C9A U17C C18U	0.00126
G5A C6G U7G C9A U17C C18G	0.00304

Variant	exon inclusion enrichment index
G5A C6U U7A G8U C9A A20G G21U	0.0713
G5A C6U U7A G8U C9A A20G G21C	0.11
G5A C6U U7A G8U C9A A20G G21A	0.112
G5A C6G U7G G8C	0.00742
G5A C6G U7G G8U	0.00501
G5A C6G U7G G8A	0.0142
G5A C6U	0.0142
G5A C6G U7G C9A U32C G33C	0.00477
G5A C6G U7G C9A U32C G33U	0.00177
G5A C6G U7G C9A U32C G33A	0.00102
G5A C6G U7G C9A G43A	0.00629
G5A C6G U7G C9A G43U	0.00185
G5A C6G U7G C9A G43C	0.00197
G5A C6G U7G C9A U17C	0.00172
G5A C6G U7G C9A U17A	0.00695
G5A C6G U7G C9A U17G	0.00284
G5A C6G U7G C9A G43A C44A	0.0069
G5A C6G U7G C9A G43A C44U	0.00188
G5A C6G U7G C9A G43A C44G	0.0259
G5A C6G U7G C9A U32G G33A	0.00113
G5A C6G U7G C9A U32G G33U	0.000945
G5A C6G U7G C9A U32G G33C	0.00522
G5A C6U U7A C9A U10A	0.0444
G5A C6G U7G C9A U10G G11U	0.00152

Variant	exon inclusion enrichment index
G5A C6G U7G C9A U10G G11A	0.00349
G5A C6G U7G C9A U10G G11C	0.00673
G5A C6G U7G C9A G48A	0.000556
G5A C6G U7G C9A G48C	0.00243
G5A C6G U7G C9A G48U	0.00708
G5A C6U G8A U10C	0.819
G5A C6G U7G G8A U10C	0.159
G5A C6U U7A C9G	0.0115
G5A C6U U7A C9A	0.0715
G5A C6U U7A C9U	0.0151
G5A C6U U7A G8U C9A A23C	0.0335
G5A C6U U7A G8U C9A A14G G15U	0.00355
G5A C6U U7A G8U C9A A14G G15C	0.0123
G5A C6U U7A G8U C9A A14G G15A	0.0192
G5A C6U U7A G8U C9A	0.074
G5A C6G U7G C9A U10C G11U	0.0108
G5A C6G U7G C9A U10C G11C	0.0142
G5A C6G U7G C9A U10C G11A	0.0011
G5A C6U U7A G8U C9A A14U G15C	0.00818
G5A C6U U7A G8U C9A A14U G15A	0.0025
G5A C6U U7A G8U C9A A14U G15U	0.00593
G5A C6G U7G C9A U10A G11C	0.0223
G5A C6G U7G C9A U10A G11A	0.00112
G5A C6G U7G C9A U10A G11U	0.00545

Variant	exon inclusion enrichment index
G5A C6U U7A G8A C9U	0.0446
G5A C6U U7A G8A C9A	0.0655
G5A C6U U7A G8A C9G	0.0475
G5A C6G U7G C9A U32A G33A	0.00102
G5A C6G U7G C9A U32A G33U	0.00206
G5A C6G U7G C9A U32A G33C	0.0011
G5A C6G U7G C9A G43U C44U	0.00214
G5A C6G U7G C9A G43U C44A	0.00143
G5A C6G U7G C9A G43U C44G	0.000892
G5A C6G U7G G8U C9U	0.00149
G5A C6G U7G G8U C9G	0.00173
G5A C6G U7G G8U C9A	0.00192
G5A C6G U7G C9A G41U	0.000489
G5A C6G U7G C9A U17G C18U	0.00166
G5A C6G U7G C9A U17G C18A	0.00242
G5A C6G U7G C9A U17G C18G	0.00151
G5A C6U G8C C9A	0.357
G5A C6G U7G C9A G42C	0.0041
G5A C6G U7G C9A G42A	0.025
G5A C6G U7G C9A G42U	0.00622
G5A C6U U7A G8U C9A A23C C24A	0.0996
G5A C6G U7G C9A G42U G43C	0.0126
G5A C6G U7G C9A G42U G43A	0.00514
G5A C6G U7G C9A G42U G43U	0.00686

Variant	exon inclusion enrichment index
G5A C6U U7A G8U	0.171
G5A C6U U7A G8C	0.696
G5A C6U U7A G8A	0.217
G5A C6G U7G C9A G46C A47G	0.00214
G5A C6G U7G C9A G46C A47C	0.00161
G5A C6G U7G C9A G46C A47U	0.00364
G5A C6G U7G C9U U10C	0.00564
G5A C6G U7G C9U U10G	0.493
G5A C6G U7G C9U U10A	0.00106
G5A C6U C9A	0.306
G5A C6U U7A G8U C9A A14C G15U	0.0114
G5A C6U U7A G8U C9A A14C G15A	0.00652
G5A C6U U7A G8U C9A A14C G15C	0.0124
G5A C6G U7G C9A U10A	0.00068
G5A C6G U7G C9A U10C	0.00449
G5A C6G U7G C9A U10G	0.00589
G5A C6G U7G C9A G46U	0.000617
G5A C6G U7G C9A G46A	0.00583
G5A C6G U7G C9A G46C	0.00111
G5A C6U U7A G8A U10C	0.863
G5A C6G U7G U10G	0.0189
G5A C6G U7G U10C	0.0118
G5A C6G U7G U10A	0.00101
